# Publication PMC10991234, “An evolved pyrrolysyl-tRNA synthetase with polysubstrate specificity expands the toolbox for engineering enzymes with incorporation of noncanonical amino acids” (Bioresources and Bioprocessing, 2023)
# Assays:
# Conditions in all cases: 100 mM Tris-HCl pH 8, 30°C, 1.5 µM PrCl3, 1.5 µM PQQ, 1 mM PES, 150 µM DCPIP
# [1] = substrate: CO; assay: dye-linked PES/DCPIP colorimetric assay, Michaelis-Menten fit; type: biochemical, Pseudomonas putida
# [2] = substrate: CC[C@@H](C)O; assay: purified protein
# [3] = substrate: CC[C@H](C)O; assay: purified protein
protein,measurement,setting,value
"PedH (Pseudomonas putida KT2440) (protein, recombinant, pET-28a in E. coli BL21(DE3), purified on Ni-NTA; PQQ and Pr3+ added) AVSNEEILQDPKNPQQIVTNGLGVQGQRYSPLDLLNVNNVKELRPVWAFSFGGEKQRGQQAQPLIKDGVMYLTGSYSRVFAVDARTGKKLWQYDARLPDDIRPCCDVINRGVALYGNLVFFGTLDAKLVALNKDTGKVVWSKKVADHKEGYSISAAPMIVNGKLITGVAGGEFGVVGKIQAYNPENGELLWMRPTVEGHMGYVYKDGKAIENGISGGEAGKTWPGDLWKTGGAAPWLGGYYDPETNLILFGTGNPAPWNSHLRPGDNLYSSSRLALNPDDGTIKWHFQSTPHDGWDFDGVNELISFNYKDGGKEVKAAATADRNGFFYVLDRTNGKFIRGFPFVDKITWATGLDKDGRPIYNDASRPGAPGSEAKGSSVFVAPAFLGAKNWMPMAYNKDTGLFYVPSNEWGMDIWNEGIAYKKGAAFLGAGFTIKPLNEDYIGVLRAIDPVSGKEVWRHKNYAPLWGGVLTTKGNLVFTGTPEGFLQAFNAKTGDKVWEFQTGSGVLGSPVTWEMDGEQYVSVVSGWGGAVPLWGGEVAKRVKDFNQGGMLWTFKLPKQLQQTASVKP",Km,[1],1100 µM
same,kcat,[1],0.15 s⁻¹
same,Km,[2],940 ± 130 µM
same,kcat,[2],0.42 ± 0.01 s⁻¹
same,kcat/Km,[2],447 M⁻¹ s⁻¹
same,Km,[3],1070 ± 180 µM
same,kcat,[3],0.43 ± 0.01 s⁻¹
same,kcat/Km,[3],402 M⁻¹ s⁻¹
